Data from paper PMC9605714.

Molecular target: SUMOylated Hsp82p (Hsp82p^K178C crosslinked with BMOE to Smt3p^Cys at position 178) (S. cerevisiae) (UniProt P02829)

B1: 6xHisMyc-tagged Aha1p (natural protein)
chain: MVVNNPNNWHWVDKNCIGWAKEYFKQKLVGVEAGSVKDKKYAKIKSVSSIEGDCEVNQRKGKVISLFDLKITVLIEGHVDSKDGSALPFEGSINVPEVAFDSEASSYQFDISIFKETSELSEAKPLIRSELLPKLRQIFQQFGKDLLATHGNDIQVPESQVKSNYTRGNQKSSFTEIKDSASKPKKNALPSSTSTSAPVSSTNKVPQNGSGNSTSIYLEPTFNVPSSELYETFLDKQRILAWTRSAQFFNSGPKLETKEKFELFGGNVISELVSCEKDKKLVFHWKLKDWSAPFNSTIEMTFHESQEFHETKLQVKWTGIPVGEEDRVRANFEEYYVRSIKLTFGFGAVL
  apparent binding affinity (K app) from Aha1p titration into ATPase reactions of 1 uM Hsp82p form (PK/LDH regenerating system): 0.31 µM
